# Test results: the domain aggregation screens of Martell et al. (2025)
# Experiment: soluble fraction after stress (log2 fold change); higher = more stays soluble; pooled small domains, quantitative proteomics
# Settings: stress: pH 4
# In short: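 Pooled custom libraries of small protein domains were stressed at pH 4 and then measured by high-throughput quantitative proteomics. The fold change in the amount of each domain that stays soluble after the acid stress serves as a measure of aggregation propensity. Fold changes are given on a log2 scale, and higher values mean more of the domain stayed soluble.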
row,Sequence,soluble fraction (log2)
1,HMSTFKSYRGKITASSGVNIRTGAGTNYNKNGALTYNSVVTIVDEKKVSGTTWGKLADGRGWISLDYLKK,0.105
2,HMSTGGDLTQRERELLGLMARGLSNQEISKRLTIAMPTVKFHVTNILAKLHADNRTEAVLVALKNKLVAL,-0.175
3,HMSTINGIEKYLSSGLIPYIGPKTAKRIVEKFGLDTLEIIQYNPERLKEIEGIGDKKLKKIVEAFEEQG,-0.333
4,HMSTISPNAFNFLQQNLNKFSDDAEGKMIKDILSKTTYDEYVKNEKSKTDFNSLLRRQTTTGDDNLNRYIN,0.072
5,HMSTKEFTIHAGEWSYRVSQKLENLGLVSDAKKFDQYLEDNGYSSKIKIGHYTISKDADFEEIAKEIT,0.0658
6,HMSTKRGEILEFLKDFSARKGYAPSVREIMQAVGLKSTASVHYHLSELHKAGLITVDGTKNRAISLA,0.0891
7,HMSTMKSKWFVSSNPIAGVMKYQAQRKKDVNAVDSSENREASGQWYTDKEEAQAIVDKLNAEEQIKEAGK,0.0846
8,HMSTMLPFVMRELVELVMKKKALPLGDALYYIYSSKLYKSLLDKSTKLWYSSTLSLYETLEKEKTEEKRRY,-0.802
9,HMSTMTDAQRHLFANKLSQLPEMGKYSHGTESYQQFAVRIAEMLQTPKKFKELYPYLQKVGFKA,0.0225
10,HMSTNYVQVLRAALNGVSGRKLAQQYRVSRDTVAILLRQAKIQGWQRAEDLENITEEDLVALLSG,-0.987
11,HMSTPLPTGLPRGTIIEYTVQTDETLAIIAAKFNSTVDDIMTRNKITDPNTIYAGQILKVAINLVTP,-0.267
12,HMSTPVPIEGQPTENLNLRDQPSTSGKILTTIPKGKTVTILSEKNANGWYKVSYNGKTGYVSGSYFKVTK,-0.14
13,HMSTSERLKQVMEVKGFNLKTFSEQADIPYRTLQNYILTNREPSAESLAKLHSQLGINLNWLMSGKGEMF,0.109
14,HMSTSIADNSSITYKVRKGDSLASIAKRHGVNINDVMRWNSVITKASQIQPGDMLTLYVRDS,≥ 0.43
15,HMSTTALLEKMVRYIRTLPVISQVVLSLHYYRGMELREIASELDITESRASQLHTTAVLGIRDLLSSY,-2.02
16,HMSTTGIVKWFNEEKGFGFITQDQGGADVFVHYRAIASEGFKTLAEGQKVSFEVEQGQKGLQAANVQA,-0.948
17,HMSTTHLTASVIKDKVNVRSEADSQNGAIIDKARTGERLLVTDYGNKWTGIVLPDGKRGYIMTEYLQF,0.22
18,HMSTTSYTQFMEDAKAGKIARVDIKGREITVTPTEGSRYVITSPGDLWMVDDLRKDGVQVYGPP,0.137
19,HMSTTYLNEGDRITLTDSVNIRTSMSETADRVGLAYQGDVVTVIMSYAEGWTKVSWNGQTGYAKTEYL,-0.0679
20,HMSTVIENVFKNFEVYEIKKGDTFYNIEKRFGVNRQELLVLNPELKEGLKLGMVLKIKEIIP,0.192
21,HMSTYTETETAYLKAYSAAGVDGKISDSERGILNMTAEALGITVERTTELEAMFNLTVEEEA,-1.39
22,HMSVDIWTGAQTGNIEAVKQHLADGVDVNSKSDIGRTALDVAIAFKQPLITDLLRKHGGKTRDELKAAE,-0.397
23,HMSVEVADITRAYYEGVGFEWWIRSVRLDPNELIVDNDDEGKLYRVPFEINGEEVTFGDPVEVKIRYE,-0.71
24,HMSVFGDNVARLRAEHGMSQRALAERLEITNGTVAAWESRDTLPDYDRIRQIAEIFDVPIPQLFAKYIP,-1.2
25,HMSVISVETAKSKALAHAGLTASKVTFIENKLEWDDGRQVYDIEFYTSDYKEYDYTIDAVSGQVLEFDY,0.114

row,Sequence,soluble fraction (log2)
1,HMSVKLMEVKGASTVVSRQVREAVSIVFPTSSMRLDLVALKARIEGVDAVKRADVYLRNGILEIQIDER,-0.981
2,HMSVKLYPNPTRSVTTFATDVDKWYLYDNQGKLVSEGNTKTIDVTAFPVGIYFVKTIKGNNSTFVKLIV,-0.183
3,HMSVLNLQTDIPKKYTDVLGTSVKGRLNTLVHNVIINSVDRPVIQMSEEVHEAMQGLRIFMFENVYRNPV,0.22
4,HMSVLSEQIKEQLMEDIFHKKYKAGDRIVESALARELGVSQASVREALRSLIAMGFLENEPFKGITVR,0.107
5,HMSVNAPMPGKIVNVLVSEGQKVNSGDVLLILEAMKMQNEIAATQAGTVKAINVAAGQSVKVGDALVN,-0.147
6,HMSVPQENKDLLGRSIEIFYAGKTVEAKVTDTGALAPLGRALDLSPATWRAFGASSISDWGVRGVFYRFVA,-0.0838
7,HMSVSTGTITGSVVNLREEPNTSSKVLDKLPKDTVVYVLSASGEWYNVSYGDKTGWVYGEYLA,-0.478
8,HMSVTSEIGAKIKYFRKSKHFSLQEMADLLYKSKSTLSKYENGQISIDIETLYAIAKVLGVHVEQLLYSEP,0.222
9,HMSVTSIEGRVVYDENANKIGIAKQVGIDSTQSMVLVLTKNDGTEGSISWNNIKKIGEIILLGN,-1.34
10,HMSWAGRRSLAALEARYRDETGISNLKIKHNGVLGYHIEVPSKSADKLMAPDSGFTHRQTLAGAVR,0.00623
11,HMSYDAINGYEPSDLRGSLTLEQTASMLNLPLTDVYARLGLPANYPSGATLKDGAADMGMGLSDFKHQLF,0.0723
12,HMSYLDTLPGRRVAAQGAITGDAGTLAVDGDTWSARVEPGAPDVAPGDEVTVLRIDGATLVVRPLP,0.0453
13,HMSYPFSEDALKEKIREYLKHNRSINRKVLEAEFHIRKQTALNWLKKLEKSGFLIKEGSRNAPVYFLAE,0.0835
14,HMSYQADEIKEKLIDILQNQKTGLSGLEISERIGINRITMTKYLQVFAAEGFIKQKNIGNVIIWFIEDGTE,-0.8
15,HMSYTYPVARLNHIKGKWYVLVSVPAHLRHLFPNQRDLRRSTGTDDESLAKRKQHALAQEIYDLFD,0.00145
16,HMTAFEPYLVKVMASVLNIRKGPGTSYAITGQIKDKGTYTIVAESGSWGKLKSGAGWISLSYTSKAGKA,-0.591
17,HMTAFSEQLIKLRKQKGLSQEQLGAAVGVTRQTVSKWELGDTTPELGKLVQLSDYFQLSIDELVGH,0.177
18,HMTAGTTALNKLQQGMSTQQVQAALGTPSDRTVKESGVELWKYYYPYENMLLYLKFRDGHLVSFGTN,-0.244
19,HMTAKQDLDSIYRHLVATRKSIAENPKMVSSIDDPQALIKMLDYAIQYFYTDKRDEALAVLEKNEEQLNFR,-0.206
20,HMTALTTEDLERRFYAKTYEGESAQKRLARLEISVFGELRQGRPESDRLHDLNNAVLEKERAALNAGAVG,-0.0471
21,HMTAMQYVTIKDIADALGISKSSVSRALAGDVHNVSAQTIERVRAKALEMGYLRNNAAVNLR,0.22
22,HMTANDKRNALYRKIEVGRRQLPAMDEVAFRQLLAAEFGVESRKDMSVGQLSRLVNILAEKGAVF,0.0414
23,HMTANTLDLTYSQFLENVKNGSVNDVTIRGNNVSGNFSDGRKFKTYAVNDPTLVEKLTKMGVNISAAPL,0.14
24,HMTAPELSVGDYLEYRGKEYKVESLDMDGFITLTDTALEDAPRLISRVTFLTDEFIRSGEYMVIT,-1.4
25,HMTAQGDSSDAVQRAITEILRHEDPSHPFSDQQLVIKLRTMDISVSRRTVTKYRKLLHIPSSTHRK,0.0972

row,Sequence,soluble fraction (log2)
1,HMTARYQQVEDYIVRRIQDGSWPPGHRLPSEHELVQQFGMSRMTVNRALRDLMQKGRIVRVAGVGSFVAQD,0.22
2,HMTATSKKAAWDEVNKIFPTDYERSAAESERAGYAIFRSTAEGVNAWISDLGDRLEINLPDGKTVNIWIEE,-0.624
3,HMTATVPDSEAGIRLDVYAAALLGVSRAGAQKYIESGAVRVNGLPAPKNRRLESGDVIEAVLPDPE,≥ 0.43
4,HMTAVAAEQQAQDAYRQTAANNLNEIQAKYKLPDSESDDFFTFAYERGFTQEDFIDIGLVDKIMGDYV,-0.203
5,HMTAVNEHELMNQFKLSLGYANGDDPQTKLSTDEKNDFMRFKEWATAMTKDSKMGKDPDYLKKLAVQWTLK,0.102
6,HMTAYEGLPVTLIIDGRVFQQNLQKMNLSVEWLRLELKKFGVTNLKEVLFASLDTEGKLFYQLKT,-0.878
7,HMTDEYYSYIGKTGTTITVLRPAGIAEVEGERLNVVSEGEFIRKGAAILVKEVEGARILVEEVN,0.349
8,HMTDFESYTVRVTATNLNIRKGAGTNFHSAGYIKPGVYTIVEEADGKGATRWGKLKSGMGWISLDYAKK,0.428
9,HMTDGYAMRLERLNSLEEYVLNKGTVSLEDLAERFGVSINTIRRDLNELISRGQIKKVYGGVSSLHD,-0.245
10,HMTDIDATSIERAVAKRRHFFLSNIQDLTMKMARRLIEKDLGLAPKHLDAAPFKTRITELVDAVIALGD,-0.484
11,HMTDIKYLIADGNDIKHWDTASSSYVKVSELPLTSDKFKIYGDDIYHKERTGIIAASPILKIWSPSAE,-0.0343
12,HMTDKLIAYSVDGILNVITSEAQSVKVYAIDGRLVRILQLGEGRNEVSGLAKGIYIVDNRKVAV,0.0217
13,HMTDLNQIGERIKGLRDALGYSPEKMASILEQKVDDYLAYEEGTKDISLSVLQRIEKEFDIDLSTLLFGT,-1.17
14,HMTDRKRDAIVQAAIGEFREHGFNGTSMDRVAAAADVSKRTVYNHFPSKEELFEAILLLMWE,-1.78
15,HMTDSISLTLNGDPRPFRAGATVADLVRDIGLDPAKVAVERNLEIVPRSTLENVHLADGDVLEIVHFV,-0.45
16,HMTDTIALRSVIAESGLKYKALAEIMGLSPYTLQMKIDNESEFKASEIDALANALGMDMQQRDSIFF,-0.406
17,HMTDVIADMLTRIRNAASSKHQTVDIPSSNLKKEIAKILLEEGYIRDFIEIDDKKQGIIRITL,-0.617
18,HMTDYREILRLLSLGLSRTQIADSLNVSRTTVIHTLQRAVAQELDWQTAEGMSDRELVAKLFPV,-0.564
19,HMTEAVYMPALQNKTLEEAQRIVEQYDLELEYTYEANAQVEEGRILSQTPQMGVLVERGEKVQAVVSLG,-0.43
20,HMTEDELLAQFEEILDGYVGKPGGLIPALQTAQKLFGYLPKRVLQLISMKLDIPYSEVTGVVSFYSFFTTV,-1.12
21,HMTEEEEFEKGFEILVNLSHFNRFSVYKEDEYVIVRIADYDFNEYFKVKKSDVGRIAEFLNENIT,-1.86
22,HMTEELLNQRKETMLALLNDPTYVPMKLKELAMLLNLSRDQRDELREVMESLEQDGKVILTKRGKYKIP,-0.255
23,HMTEELQDMESRIIEAAKRVFVRKGYEATKMSDIALEVGLGRTALHYYFRTKEMLFDAIFGRLMGV,-0.594
24,HMTEEPISDGIKKLVEEWENIEGNLIMIFHGIQKHYGYVPRNVAKYVSEAIDVPLTRIYEILTFYNYFTM,-1.43
25,HMTEEYAVLWRVARQTLKPEAFDVLWMKYREQLSIAEIAGIMNRSETSVKVMLHRARKNLGTALESS,-0.262
